Assay results: article PMC3630169

Key:
[1] = target: FhbA from B. hermsii strain MAN (B. hermsii strain MAN); assay: radioligand binding; OspE, FhbA or Tuf coated on microtitre plates (5–25 µg/ml in PBS, 4°C, 12 h), blocked with 0.5% BSA/PBS; ^125I-FH19-20 (50,000 cpm/well) mixed with serial dilutions of FH19-20 mutants; 37°C, 60 min; IC50 from fitted inhibition curves, three experiments in triplicate
[2] = target: outer surface protein E (OspE) from B. burgdorferi sensu stricto strain N40 (B. burgdorferi sensu stricto strain N40); assay: as above

## FH19-20 E1198A (from UniProt P08603 1107-1231) (domain or fragment)
[1]
  IC50mut/IC50wt: 25.1
[2]
  IC50mut/IC50wt: 24.7

## FH19-20 T1184R (from UniProt P08603 1107-1231) (domain or fragment)
[1]
  IC50mut/IC50wt: 1.7
[2]
  IC50mut/IC50wt: 1.2

## FH19-20 R1206A (from UniProt P08603 1107-1231) (domain or fragment)
[1]
  IC50mut/IC50wt: 3.1
[2]
  IC50mut/IC50wt: 3.4

## FH19-20 R1203A (from UniProt P08603 1107-1231) (domain or fragment)
[1]
  IC50mut/IC50wt: 41.9
[2]
  IC50mut/IC50wt: 4.7

## FH19-20 R1182A (from UniProt P08603 1107-1231) (domain or fragment)
[1]
  IC50mut/IC50wt: 18
[2]
  IC50mut/IC50wt: 3

## FH19-20 Q1139A (from UniProt P08603 1107-1231) (domain or fragment)
[1]
  IC50mut/IC50wt: 1.1
[2]
  IC50mut/IC50wt: 1.2

## FH19-20 D1119G (from UniProt P08603 1107-1231) (domain or fragment)
[1]
  IC50mut/IC50wt: 0.9
[2]
  IC50mut/IC50wt: 0.6

## FH19-20 W1157L (from UniProt P08603 1107-1231) (domain or fragment)
[1]
  IC50mut/IC50wt: 1.4
[2]
  IC50mut/IC50wt: 1.4

## FH19-20 L1189R (from UniProt P08603 1107-1231) (domain or fragment)
[1]
  IC50mut/IC50wt: 4.9
[2]
  IC50mut/IC50wt: 2.9

## FH19-20 W1183L (from UniProt P08603 1107-1231) (domain or fragment)
[1]
  IC50mut/IC50wt: 66.4
[2]
  IC50mut/IC50wt: 97.1

## FH19-20 R1215Q (from UniProt P08603 1107-1231) (domain or fragment)
[1]
  IC50mut/IC50wt: 2
[2]
  IC50mut/IC50wt: 33.8

## FH19-20 K1186A (from UniProt P08603 1107-1231) (domain or fragment)
[1]
  IC50mut/IC50wt: 0.5
[2]
  IC50mut/IC50wt: 0.2

## FH19-20 R1210A (from UniProt P08603 1107-1231) (domain or fragment)
[1]
  IC50mut/IC50wt: 1.8
[2]
  IC50mut/IC50wt: 1.3

## FH19-20 K1188A (from UniProt P08603 1107-1231) (domain or fragment)
[1]
  IC50mut/IC50wt: 1.6
[2]
  IC50mut/IC50wt: 0.8
